From patent publication US20250027068

Target: pooled human IgG (human IgG1, 2, 3 and 4)

Protein	Enzyme Activity Endpoint Assay: Fab′2 [ng/µL]	Enzyme Activity Endpoint Assay: Fc [ng/µL]	Enzyme Activity Endpoint Assay: IgG [ng/µL]	Enzyme Activity Endpoint Assay: scIgG [ng/µL]
PRT-504 (protein) MITSVWTKGVTPPTDFIKGEDVFHAPYKAGQGWYDITKAFDGGDDLLCGAATAGNMLHWWFDQNKEYIEAYLKKHPEKQKIMFGDQELLDVRKAINTKGSQKNSELFNYFRDKAFPNLSARRLGVMPDLVLDMFINGYYLNVTKTQTTDVNRTYQEKDKRGGIFDAVFTRGDQSKLLTSRHDLKNKGLNEISQLIKQELTEGKALGLSHTYANVRINHVINLWGADFDADGNLEAIYVTDSDSNASIGMKKYFVGVNSAGKVAISAKEIKEDNIGAQVLGLFTLSTGQDIWNQTNLEHHHHHH	1310	442	0	0
PRT-479 (protein) MITSVWTKGVTPPTDFIYGEDVLHAPYKAGQGWYDITKAFDGGDDLLCGAATAGNMLHWWFDQNKEQIENYLKKHPEKQKINFNGEQMFDVKEAIDTKDSQTNSELFNYFKEKAFPYLSTKHLGVFPDHVIDMFINGYRLSLTNHGPTPVKRQEKDPRGGIFDAVFGRGDQTKLLTNRHDLKNKTLNEISQLIKQELTEGKALGISHTYANVRINHVINLWGADFDAEGNLEAIYVTDSDSNASIGMKKYFVGVNSNGKVAISAKEIEEDNIGAQVLGLFTLSTGQKIWNKTNLEHHHHHH	1340	481	0	0
PRT-467 (protein) MITSVWTKGVTPPTDFIKGEDVFHAPYKAGQGWYDITKAFDGGDDLLCGAATAGNMLHWWFDQNKDQIERYLKEHPEKQKINFNGEQMFDVKEAIDTKDSQTNSELFNYFKEKAFPYLSTKHLGVFPDHVLDMFINGYRLSLTNHGPTPVKRQEKDPRGGIFDAVFGRGDQTKLLTSRHDLKNKTLNEISQLIKQELTEGKALGLSHTYANVRINHVINLWGADFDAEGNLEAIYVTDSDSNASIGMKKYFVGVNSAGKVAISAKEIKEDNIGAQVLGLFTLSTGQKIWNKTNLEHHHHHH	685	374	57	375
PRT-518 (protein) MVTSVWTKGVTPPTDFIKGEDVFHAPYKAGQGWYDITKTFNGKDNLLCGAATAGNMLHWWFDQNKEYIEAYLKKHPEKQKIIFNNQELFDLKAAINTKGSQKNSELFNYFRDKAFPNLSARRLGVFPDLVLDMFINGYYLNVTKTQTTDVNRTYQEKDKRGGIFDAVFTRGVQSKLLTSRHDFKEKGLKEISDLIKQELTEGKALGLSHTYANVRINHVINLWGADFDSDGNLKAIYVTDSDTNASIGMKKYFVGVNSAGKVAISAKEIKEDNIGAQVLGLFTLSTGQDIWNQTNLEHHHHHH	1220	423	0	0
PRT-693 (protein) MQITSVWTKGVIPPTPEQFRYNNEDVIHAPYLPNQGWYDITKTFNGGDNLLCGAATAGNMLHWWFDQNKTEIEAYLSKYPEKQKIIFNNQELFDLRAAINTKDSQTNSQLFNYFRDKAFPNLSARQLGVMPDLVLDMFINGYYLNVFKTQSTDVNRPYQDRDKRGGIFDHVFGRGDQTTLLTARHDLKNGTLNDISTLIKQELQSGKALALSHTYANVSISHVINLWGADFNAEGNLEAIYVTDSDANSSIGMKKYYVGVNAHGKVAISAKKIEGENIGAQVLGLFTLSSGKEIWQKLSLEHHHHHH	1280	436	0	0
PRT-525 (protein) MITSVWTKGVTPPAKFTQGEDVFHAPYVANQGWYDITKTFNGKDNLLCGAATAGNMLHWWFDQNKEEIEAYLKKHPEKQKIIFNNQELFDLKAVINTKDSQTNSALFNYFKDKAFPNLSARRLGVFPDLVLDMFINGYYLNVYKTQTTDVNRTYQTKDRRGGIFDAVFTRGVQSKLLTERHDLKNKTLKEISDLIKQELTEGKALGLSHTYANVRINHVINLWGADFDSNGNLEAIYVTDSDTNASIGMKKYFVGVNSAGKVAISAKEIKEDNIGAQVLGLFTLSTGQDIWNQTNLEHHHHHH	1340	386	0	0
PRT-522 (protein) MITSVWTKGVTPPTDFIKGEDVFHAPYKAGQGWYDITKTFNGKDNLLCGAATAGNMLHWWFDQNKEEIEAYLKKHPEKQKIIFNNQELFDLKAVINTKDSQTNSALFNYFKDKAFPNLSARRLGVFPDLVLDMFINGYYLNVYKTQTTDVNRTYQTKDRRGGIFDAVFTRGVQSKLLTERHDFKEKTLKEISDLIKQELTEGKALGLSHTYANVRINHVINLWGADFDSNGNLEAIYVTDSDTNASIGMKKYFVGVNSAGKVAISAKEIKEDNIGAQVLGLFTLSTGQDIWNQTNLEHHHHHH	736	253	0	0
PRT-486 (protein) MVTSVWTKGVTPPTDFIKGEDVFHAPYKAGQGWYDITKTFNGKDNLLCGAATAGNMLHWWFDQNKDQIERYLKEHPEKQKIIFNNQELFDLKAAIDTKDSQTDSKLFEYFKEKAFPYLSTKHLGVFPDHVLDMFINGYRLSLTNHGPTPVKEGSKDKRGGIFDAVFTRGVQSKLLTSRHDFKEKTLKEISDLIKQELTEGKALGLSHTYANVRINHVINLWGADFDSEGNLKAIYVTDSDTNASIGMKKYFVGVNSAGKVAISAKEIKEDNIGAQVLGLFTLSTGQDIWNQTNLEHHHHHH	145	210	107	627
PRT-685 (protein) MQITSVWTKGVTPLTPEQFRNNNEDVIHAPYLPNQGWYDITKAFNGKDNLLCGAATAGNMLHWWFDQNKEEIEAYLKKYPEKQKIIFNNQELFDLRKAINTKDSQTNSALFNYFRDKAFPNLSARQLGVMPDLVLDMFINGYYLNVFKTQSTDVNRPYQDKDKRGGIFDHVFNRGDQTTLLTARHDLKNKTLNDISTIIKQELSSGKALALSHTYANVSISHVINLWGADFNAEGNLEAIYVTDSDANASIGMKKYYVGRNAHGHVAISAKKIEGENIGAQVLGLFTLSSGKEIWQKLSLEHHHHHH	1200	448	0	0
PRT-477 (protein) MVTSVWTKGVTPPTNFTYGEDVLHAPYVANQGWYDITKTFNGKDDLLCGAATAGNMLHWWFDQNKEQIENYLKKHPEKQKINFNGEQMFDVKEAIDTKDSQLDSKLFEYFKEKAFPYLSTKHLGVFPDHVIDMFINGYRLSLTNHGPTPVKRGSKDPRGGIFDAVFTRGDQSKLLTNRHDLKNKTLKEISDLIKQELTEGKALGISHTYANVRINHVINLWGADFDAEGNLEAIYVTDSDSNASIGMKKYFVGVNSNGKVAISAKEIEEDNIGAQVLGLFTLSTGQDIWNQTNLEHHHHHH	543	277	0	224
